The numbers were not newly measured in paper PMC4740388, which cites them from elsewhere.

“And” between values parts separate entries of the source, which are not always exact repeats. Identical values can stand only once. Like-named read-outs stand apart in the source and are kept apart here.

The target in data set [1] is VEGFR1 ectodomain (Homo sapiens) (UniProt P17948).
The target of data set [2] is VEGFR2 ectodomain (Homo sapiens) (UniProt P35968).
For another data set, the target named is Nucleolin (Homo sapiens) (UniProt P19338).
Data set [3] concerns the target Integrin αvβ3 (Homo sapiens) (UniProt P06756).
Data set [4] concerns the target Integrin α5β1 (Homo sapiens) (UniProt P08648).
Data set [5] deals with Integrin αvβ3 (Homo sapiens) (UniProt P06756). The source holds these as a separate data set.
Chain of Integrin αvβ3 (Homo sapiens) (P06756 31-992, chain 1 of 2): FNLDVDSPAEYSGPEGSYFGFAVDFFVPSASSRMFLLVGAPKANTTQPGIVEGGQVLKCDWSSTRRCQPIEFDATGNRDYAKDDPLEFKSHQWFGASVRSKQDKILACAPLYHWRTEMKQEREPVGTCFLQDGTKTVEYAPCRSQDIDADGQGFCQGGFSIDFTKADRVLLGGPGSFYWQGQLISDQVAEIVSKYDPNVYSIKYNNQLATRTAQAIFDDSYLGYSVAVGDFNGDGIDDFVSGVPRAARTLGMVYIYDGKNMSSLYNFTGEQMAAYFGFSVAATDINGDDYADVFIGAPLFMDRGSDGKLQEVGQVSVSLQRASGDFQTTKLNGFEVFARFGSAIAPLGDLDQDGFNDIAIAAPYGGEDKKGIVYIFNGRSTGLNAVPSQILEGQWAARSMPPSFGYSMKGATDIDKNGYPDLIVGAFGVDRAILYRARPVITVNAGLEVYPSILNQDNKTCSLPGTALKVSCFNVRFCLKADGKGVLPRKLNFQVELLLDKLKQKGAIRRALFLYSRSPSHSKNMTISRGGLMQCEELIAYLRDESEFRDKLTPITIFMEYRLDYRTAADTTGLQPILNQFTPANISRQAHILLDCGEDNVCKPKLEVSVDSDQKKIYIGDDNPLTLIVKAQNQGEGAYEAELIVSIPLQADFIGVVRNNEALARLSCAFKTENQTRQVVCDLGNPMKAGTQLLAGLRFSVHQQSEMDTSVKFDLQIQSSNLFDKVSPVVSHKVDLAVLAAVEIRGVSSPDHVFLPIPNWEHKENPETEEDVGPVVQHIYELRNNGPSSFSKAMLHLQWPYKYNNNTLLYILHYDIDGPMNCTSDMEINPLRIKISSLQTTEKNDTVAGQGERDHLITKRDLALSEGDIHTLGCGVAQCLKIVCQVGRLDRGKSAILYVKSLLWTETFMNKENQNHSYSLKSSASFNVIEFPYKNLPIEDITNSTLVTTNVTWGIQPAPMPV
Chain of Integrin αvβ3 (Homo sapiens) (P05106 27-718, chain 2 of 2, further chain): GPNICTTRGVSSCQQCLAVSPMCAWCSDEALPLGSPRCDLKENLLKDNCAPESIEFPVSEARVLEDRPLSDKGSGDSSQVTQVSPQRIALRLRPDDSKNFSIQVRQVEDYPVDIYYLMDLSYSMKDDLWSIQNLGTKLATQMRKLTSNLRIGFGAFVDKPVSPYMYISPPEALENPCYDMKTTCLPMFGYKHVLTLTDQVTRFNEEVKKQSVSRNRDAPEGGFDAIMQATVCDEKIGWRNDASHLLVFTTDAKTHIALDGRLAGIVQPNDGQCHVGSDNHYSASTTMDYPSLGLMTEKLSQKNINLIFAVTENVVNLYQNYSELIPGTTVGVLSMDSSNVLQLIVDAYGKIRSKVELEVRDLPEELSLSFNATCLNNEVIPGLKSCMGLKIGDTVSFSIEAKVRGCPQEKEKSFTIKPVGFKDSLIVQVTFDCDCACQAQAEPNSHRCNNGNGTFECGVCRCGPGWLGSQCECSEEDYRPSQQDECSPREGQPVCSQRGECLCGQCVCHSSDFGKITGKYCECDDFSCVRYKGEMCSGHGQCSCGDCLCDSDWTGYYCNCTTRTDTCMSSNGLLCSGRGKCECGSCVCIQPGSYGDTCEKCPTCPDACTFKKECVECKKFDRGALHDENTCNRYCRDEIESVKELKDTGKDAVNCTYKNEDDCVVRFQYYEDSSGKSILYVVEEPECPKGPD

Chain of Endostatin endostatin (P39060 1569-1754): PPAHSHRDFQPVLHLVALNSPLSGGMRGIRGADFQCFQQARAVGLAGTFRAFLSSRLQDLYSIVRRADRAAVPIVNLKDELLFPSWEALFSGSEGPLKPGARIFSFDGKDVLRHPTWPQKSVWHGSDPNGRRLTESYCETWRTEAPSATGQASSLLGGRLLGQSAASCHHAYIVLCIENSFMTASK
Chain of Integrin α5β1 (Homo sapiens) (P08648 42-995, chain 1 of 2): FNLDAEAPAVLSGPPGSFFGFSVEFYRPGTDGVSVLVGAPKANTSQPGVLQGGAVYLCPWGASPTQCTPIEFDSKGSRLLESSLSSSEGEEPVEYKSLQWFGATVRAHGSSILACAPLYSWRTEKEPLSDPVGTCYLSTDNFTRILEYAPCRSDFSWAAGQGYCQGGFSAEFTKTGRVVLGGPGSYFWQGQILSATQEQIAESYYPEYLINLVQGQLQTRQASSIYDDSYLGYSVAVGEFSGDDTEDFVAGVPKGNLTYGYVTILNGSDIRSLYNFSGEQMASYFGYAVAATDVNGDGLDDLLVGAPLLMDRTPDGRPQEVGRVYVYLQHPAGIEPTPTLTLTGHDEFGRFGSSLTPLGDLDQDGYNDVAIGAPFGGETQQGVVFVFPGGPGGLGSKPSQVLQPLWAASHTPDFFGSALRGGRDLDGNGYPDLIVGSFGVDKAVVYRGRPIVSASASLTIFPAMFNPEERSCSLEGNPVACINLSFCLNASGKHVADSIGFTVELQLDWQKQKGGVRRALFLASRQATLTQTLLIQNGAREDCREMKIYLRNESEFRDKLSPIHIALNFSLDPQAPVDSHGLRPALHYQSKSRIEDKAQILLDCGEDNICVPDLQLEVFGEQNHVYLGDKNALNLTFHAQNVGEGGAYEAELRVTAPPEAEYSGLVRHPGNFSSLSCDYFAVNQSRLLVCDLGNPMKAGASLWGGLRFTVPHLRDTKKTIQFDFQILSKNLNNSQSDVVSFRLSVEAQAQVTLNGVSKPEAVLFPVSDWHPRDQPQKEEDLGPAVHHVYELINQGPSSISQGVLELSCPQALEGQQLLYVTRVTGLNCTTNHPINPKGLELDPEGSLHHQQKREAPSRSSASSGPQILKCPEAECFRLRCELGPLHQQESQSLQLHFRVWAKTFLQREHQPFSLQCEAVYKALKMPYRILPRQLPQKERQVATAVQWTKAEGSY
Chain of Integrin α5β1 (Homo sapiens) (P05556 21-728, chain 2 of 2, further chain): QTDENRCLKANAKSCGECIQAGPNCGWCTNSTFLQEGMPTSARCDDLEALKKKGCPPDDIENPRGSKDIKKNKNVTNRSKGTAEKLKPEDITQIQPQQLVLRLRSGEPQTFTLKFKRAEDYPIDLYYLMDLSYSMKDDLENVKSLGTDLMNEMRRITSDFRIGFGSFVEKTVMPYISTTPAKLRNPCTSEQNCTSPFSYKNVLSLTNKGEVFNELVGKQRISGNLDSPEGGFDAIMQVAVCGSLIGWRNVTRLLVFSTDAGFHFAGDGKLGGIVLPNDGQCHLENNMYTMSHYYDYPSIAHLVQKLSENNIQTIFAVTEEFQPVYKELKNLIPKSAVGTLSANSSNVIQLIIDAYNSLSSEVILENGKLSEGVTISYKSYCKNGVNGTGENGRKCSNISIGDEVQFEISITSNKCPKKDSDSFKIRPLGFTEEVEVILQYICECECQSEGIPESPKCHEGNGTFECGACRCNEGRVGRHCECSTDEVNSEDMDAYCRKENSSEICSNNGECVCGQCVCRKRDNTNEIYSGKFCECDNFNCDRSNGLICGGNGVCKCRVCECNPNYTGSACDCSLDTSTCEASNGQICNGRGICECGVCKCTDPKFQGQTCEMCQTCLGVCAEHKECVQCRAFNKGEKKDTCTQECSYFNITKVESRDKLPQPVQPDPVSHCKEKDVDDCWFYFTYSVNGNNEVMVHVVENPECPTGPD
Chain of Endorepellin endorepellin (P98160 3684-4391): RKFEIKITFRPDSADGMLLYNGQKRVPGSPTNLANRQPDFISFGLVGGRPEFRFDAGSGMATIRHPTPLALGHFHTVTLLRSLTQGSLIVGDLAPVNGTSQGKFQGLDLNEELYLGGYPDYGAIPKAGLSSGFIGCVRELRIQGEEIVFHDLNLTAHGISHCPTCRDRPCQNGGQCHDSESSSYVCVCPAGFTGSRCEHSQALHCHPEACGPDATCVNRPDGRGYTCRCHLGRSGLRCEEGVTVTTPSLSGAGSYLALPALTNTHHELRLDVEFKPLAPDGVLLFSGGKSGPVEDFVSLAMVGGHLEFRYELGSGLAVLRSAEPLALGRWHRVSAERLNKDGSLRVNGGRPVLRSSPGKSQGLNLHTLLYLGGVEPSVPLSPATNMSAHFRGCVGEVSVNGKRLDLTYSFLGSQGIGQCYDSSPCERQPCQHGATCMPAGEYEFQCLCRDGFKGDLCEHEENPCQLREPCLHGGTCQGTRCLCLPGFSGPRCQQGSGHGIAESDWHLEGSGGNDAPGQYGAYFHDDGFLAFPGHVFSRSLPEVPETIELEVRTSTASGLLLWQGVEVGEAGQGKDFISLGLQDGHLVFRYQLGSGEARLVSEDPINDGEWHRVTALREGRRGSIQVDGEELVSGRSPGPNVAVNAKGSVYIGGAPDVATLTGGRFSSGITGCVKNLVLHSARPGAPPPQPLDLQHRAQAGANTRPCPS
Chain of Nucleolin (Homo sapiens) (P19338 2-710): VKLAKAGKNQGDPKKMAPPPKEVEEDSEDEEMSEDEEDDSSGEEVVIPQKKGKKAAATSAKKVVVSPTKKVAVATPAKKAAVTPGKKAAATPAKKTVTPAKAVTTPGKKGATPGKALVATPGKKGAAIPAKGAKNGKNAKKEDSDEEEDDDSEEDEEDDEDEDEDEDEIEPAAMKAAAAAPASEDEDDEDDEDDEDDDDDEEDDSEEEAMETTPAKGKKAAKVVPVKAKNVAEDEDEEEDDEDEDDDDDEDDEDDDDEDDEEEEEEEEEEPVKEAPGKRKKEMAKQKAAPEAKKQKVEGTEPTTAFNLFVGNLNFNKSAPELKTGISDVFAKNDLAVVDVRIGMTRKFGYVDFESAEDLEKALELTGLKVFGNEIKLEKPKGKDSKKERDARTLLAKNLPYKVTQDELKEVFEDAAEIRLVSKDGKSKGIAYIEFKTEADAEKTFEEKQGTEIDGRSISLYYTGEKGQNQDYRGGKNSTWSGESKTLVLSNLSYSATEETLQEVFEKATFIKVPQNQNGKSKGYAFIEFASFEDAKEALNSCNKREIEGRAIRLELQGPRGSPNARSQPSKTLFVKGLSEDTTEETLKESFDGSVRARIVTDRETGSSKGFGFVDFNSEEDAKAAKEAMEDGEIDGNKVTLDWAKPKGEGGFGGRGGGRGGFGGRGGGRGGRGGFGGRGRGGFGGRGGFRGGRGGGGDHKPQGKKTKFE

In general, Kd refers to a measure of binding affinity in units of concentration. As for “Endorepellin endorepellin (from UniProt P98160)”, the results for the Kd in data set [1] and in data set [2] were 1 nM and 0.9 nM, respectively.

“Endostatin endostatin (from UniProt P39060)”: the Kd was 13 nM with Nucleolin (Homo sapiens); 501 nM and 1200 nM in data set [3]; 975 nM and 451 nM in data set [4].

Turning to “Tetrastatin tetrastatin (from UniProt P53420)”, the Kd in data set [5] was 148 nM.
